Experimental data published in publication PMC10090947.

What was measured:
[1] = target: Large tumor suppressor 1 (LATS1), endogenous (UniProt O95835); assay: Strep AP-MS; details: three biological replicates; parent: est. 0.0; read off a plot
[2] = target: nonreceptor tyrosine phosphatase 14 (PTPN14), endogenous (UniProt Q15678); assay: Strep AP-MS; details: three biological replicates; parent: est. 0.0; read off a plot
[3] = target: Large tumor suppressor 1 (LATS1), endogenous (UniProt O95835); assay: streptavidin affinity purification and MS (MS1 intensity); details: three independent biological replicates; parent: est. -0.1; read off a plot
[4] = target: nonreceptor tyrosine phosphatase 14 (PTPN14), endogenous (UniProt Q15678); assay: as above; details: three independent biological replicates; parent: est. -0.1; read off a plot
AMOTL1 = AMOTL1 (UniProt Q8IY63); assay: AP-MS (MS1 intensity); details: parent: est. 34; read off a plot
CCDC85C = CCDC85C (UniProt A6NKD9); assay: AP-MS (MS1 intensity); details: parent: est. 32; read off a plot
TP53BP2 = TP53BP2 (UniProt Q13625); assay: AP-MS (MS1 intensity); details: parent: est. 33; read off a plot
UniProt Q13625, sequence (Q13625 whole entry): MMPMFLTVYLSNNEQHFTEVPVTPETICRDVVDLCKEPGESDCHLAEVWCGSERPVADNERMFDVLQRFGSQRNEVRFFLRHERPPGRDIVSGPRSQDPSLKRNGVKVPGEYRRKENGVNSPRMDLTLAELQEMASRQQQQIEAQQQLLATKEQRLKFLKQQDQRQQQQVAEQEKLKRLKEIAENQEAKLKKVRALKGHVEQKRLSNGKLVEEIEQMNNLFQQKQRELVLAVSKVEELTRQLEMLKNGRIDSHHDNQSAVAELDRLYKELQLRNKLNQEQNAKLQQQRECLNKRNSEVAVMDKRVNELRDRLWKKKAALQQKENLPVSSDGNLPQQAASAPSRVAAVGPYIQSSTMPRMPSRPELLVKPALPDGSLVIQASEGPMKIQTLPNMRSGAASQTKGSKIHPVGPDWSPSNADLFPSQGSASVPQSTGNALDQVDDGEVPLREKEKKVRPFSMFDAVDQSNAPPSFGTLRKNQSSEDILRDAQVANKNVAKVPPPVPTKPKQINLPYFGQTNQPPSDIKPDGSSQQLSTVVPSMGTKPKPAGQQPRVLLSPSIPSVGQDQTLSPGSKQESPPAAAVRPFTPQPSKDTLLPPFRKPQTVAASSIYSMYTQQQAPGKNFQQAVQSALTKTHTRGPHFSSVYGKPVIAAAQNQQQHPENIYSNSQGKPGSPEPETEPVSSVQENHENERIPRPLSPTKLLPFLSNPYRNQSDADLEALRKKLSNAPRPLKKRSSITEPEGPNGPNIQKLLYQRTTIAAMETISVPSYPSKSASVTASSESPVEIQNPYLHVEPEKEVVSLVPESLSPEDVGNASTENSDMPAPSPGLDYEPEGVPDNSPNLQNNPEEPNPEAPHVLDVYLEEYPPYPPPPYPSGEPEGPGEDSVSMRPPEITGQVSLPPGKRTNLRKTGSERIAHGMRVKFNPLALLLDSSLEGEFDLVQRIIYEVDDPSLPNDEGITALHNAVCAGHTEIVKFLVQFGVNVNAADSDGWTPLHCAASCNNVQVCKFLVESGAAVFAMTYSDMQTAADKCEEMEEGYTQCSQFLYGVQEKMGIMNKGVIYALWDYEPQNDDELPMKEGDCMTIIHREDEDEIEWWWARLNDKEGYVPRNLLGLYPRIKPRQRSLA

UniProt O95835, sequence (O95835 whole entry): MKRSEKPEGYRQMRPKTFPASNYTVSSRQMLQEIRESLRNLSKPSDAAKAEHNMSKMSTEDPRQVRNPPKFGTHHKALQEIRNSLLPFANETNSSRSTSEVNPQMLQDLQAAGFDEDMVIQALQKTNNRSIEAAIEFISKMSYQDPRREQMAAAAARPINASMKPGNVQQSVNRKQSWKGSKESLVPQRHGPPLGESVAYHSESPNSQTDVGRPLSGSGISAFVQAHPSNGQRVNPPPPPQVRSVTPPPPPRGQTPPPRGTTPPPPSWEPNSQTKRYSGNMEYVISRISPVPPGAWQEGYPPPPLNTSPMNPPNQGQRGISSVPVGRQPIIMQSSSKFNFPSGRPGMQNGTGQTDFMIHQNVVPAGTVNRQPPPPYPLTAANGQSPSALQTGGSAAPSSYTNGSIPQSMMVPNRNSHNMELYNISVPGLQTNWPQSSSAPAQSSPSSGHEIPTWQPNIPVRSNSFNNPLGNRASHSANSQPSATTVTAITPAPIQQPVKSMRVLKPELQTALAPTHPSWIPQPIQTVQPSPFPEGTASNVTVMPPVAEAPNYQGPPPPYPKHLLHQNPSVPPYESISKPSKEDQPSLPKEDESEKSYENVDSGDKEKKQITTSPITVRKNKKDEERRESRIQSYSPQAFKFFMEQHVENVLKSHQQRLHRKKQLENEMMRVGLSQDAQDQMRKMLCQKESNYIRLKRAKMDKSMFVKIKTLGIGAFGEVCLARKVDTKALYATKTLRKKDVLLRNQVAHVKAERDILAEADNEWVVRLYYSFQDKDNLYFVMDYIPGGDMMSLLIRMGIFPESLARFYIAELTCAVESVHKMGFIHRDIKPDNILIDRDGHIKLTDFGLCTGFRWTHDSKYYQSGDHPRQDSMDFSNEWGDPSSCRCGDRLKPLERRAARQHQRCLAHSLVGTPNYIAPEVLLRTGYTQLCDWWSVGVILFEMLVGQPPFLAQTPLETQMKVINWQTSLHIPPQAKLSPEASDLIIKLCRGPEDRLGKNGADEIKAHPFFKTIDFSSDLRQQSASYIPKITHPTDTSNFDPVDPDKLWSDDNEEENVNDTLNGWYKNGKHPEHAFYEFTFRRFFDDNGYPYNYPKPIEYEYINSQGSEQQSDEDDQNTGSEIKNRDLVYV
UniProt Q15678, sequence (Q15678 whole entry): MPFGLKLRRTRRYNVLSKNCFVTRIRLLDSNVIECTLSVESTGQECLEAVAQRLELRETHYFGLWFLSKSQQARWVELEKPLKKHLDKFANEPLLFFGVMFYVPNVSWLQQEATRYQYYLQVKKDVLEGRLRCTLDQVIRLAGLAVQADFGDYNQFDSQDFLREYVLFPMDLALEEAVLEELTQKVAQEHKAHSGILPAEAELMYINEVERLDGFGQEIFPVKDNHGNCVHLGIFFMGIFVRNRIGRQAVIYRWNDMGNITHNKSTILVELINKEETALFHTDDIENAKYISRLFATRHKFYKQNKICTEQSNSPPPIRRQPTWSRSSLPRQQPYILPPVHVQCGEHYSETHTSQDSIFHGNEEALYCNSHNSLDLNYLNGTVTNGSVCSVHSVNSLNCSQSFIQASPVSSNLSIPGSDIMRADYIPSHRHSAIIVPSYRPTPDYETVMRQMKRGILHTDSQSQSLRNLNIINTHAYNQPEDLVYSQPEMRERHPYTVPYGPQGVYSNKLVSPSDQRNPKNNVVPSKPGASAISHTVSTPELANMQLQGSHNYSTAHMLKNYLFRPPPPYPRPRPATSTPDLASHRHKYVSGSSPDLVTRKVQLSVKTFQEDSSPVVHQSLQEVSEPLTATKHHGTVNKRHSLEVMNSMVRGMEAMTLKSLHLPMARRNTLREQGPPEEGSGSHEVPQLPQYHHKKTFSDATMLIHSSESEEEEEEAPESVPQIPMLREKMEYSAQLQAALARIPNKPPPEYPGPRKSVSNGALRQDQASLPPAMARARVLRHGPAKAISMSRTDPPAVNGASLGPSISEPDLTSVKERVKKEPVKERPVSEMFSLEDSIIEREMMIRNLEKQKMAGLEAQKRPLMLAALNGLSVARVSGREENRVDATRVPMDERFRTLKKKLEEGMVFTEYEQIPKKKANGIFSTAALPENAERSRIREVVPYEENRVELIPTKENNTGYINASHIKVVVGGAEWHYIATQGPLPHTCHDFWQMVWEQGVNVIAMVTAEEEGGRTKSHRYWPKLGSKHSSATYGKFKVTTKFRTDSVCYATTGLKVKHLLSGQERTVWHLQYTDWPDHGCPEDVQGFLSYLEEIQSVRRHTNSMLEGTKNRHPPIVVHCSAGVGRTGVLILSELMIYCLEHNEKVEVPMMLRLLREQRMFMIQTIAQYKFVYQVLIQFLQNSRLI
UniProt A6NKD9, sequence (A6NKD9 whole entry): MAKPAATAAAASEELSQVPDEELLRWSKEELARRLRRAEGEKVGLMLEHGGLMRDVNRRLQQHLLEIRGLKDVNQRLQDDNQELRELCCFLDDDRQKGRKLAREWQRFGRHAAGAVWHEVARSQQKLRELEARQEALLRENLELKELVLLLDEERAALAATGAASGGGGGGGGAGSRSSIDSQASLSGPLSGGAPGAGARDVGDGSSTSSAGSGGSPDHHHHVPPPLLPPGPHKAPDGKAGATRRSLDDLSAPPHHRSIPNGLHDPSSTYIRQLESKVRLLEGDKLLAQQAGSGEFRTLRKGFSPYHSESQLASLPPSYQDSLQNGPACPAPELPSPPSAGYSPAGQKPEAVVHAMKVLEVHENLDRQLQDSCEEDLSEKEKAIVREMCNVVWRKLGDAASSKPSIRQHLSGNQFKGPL
UniProt Q8IY63, sequence (Q8IY63 whole entry): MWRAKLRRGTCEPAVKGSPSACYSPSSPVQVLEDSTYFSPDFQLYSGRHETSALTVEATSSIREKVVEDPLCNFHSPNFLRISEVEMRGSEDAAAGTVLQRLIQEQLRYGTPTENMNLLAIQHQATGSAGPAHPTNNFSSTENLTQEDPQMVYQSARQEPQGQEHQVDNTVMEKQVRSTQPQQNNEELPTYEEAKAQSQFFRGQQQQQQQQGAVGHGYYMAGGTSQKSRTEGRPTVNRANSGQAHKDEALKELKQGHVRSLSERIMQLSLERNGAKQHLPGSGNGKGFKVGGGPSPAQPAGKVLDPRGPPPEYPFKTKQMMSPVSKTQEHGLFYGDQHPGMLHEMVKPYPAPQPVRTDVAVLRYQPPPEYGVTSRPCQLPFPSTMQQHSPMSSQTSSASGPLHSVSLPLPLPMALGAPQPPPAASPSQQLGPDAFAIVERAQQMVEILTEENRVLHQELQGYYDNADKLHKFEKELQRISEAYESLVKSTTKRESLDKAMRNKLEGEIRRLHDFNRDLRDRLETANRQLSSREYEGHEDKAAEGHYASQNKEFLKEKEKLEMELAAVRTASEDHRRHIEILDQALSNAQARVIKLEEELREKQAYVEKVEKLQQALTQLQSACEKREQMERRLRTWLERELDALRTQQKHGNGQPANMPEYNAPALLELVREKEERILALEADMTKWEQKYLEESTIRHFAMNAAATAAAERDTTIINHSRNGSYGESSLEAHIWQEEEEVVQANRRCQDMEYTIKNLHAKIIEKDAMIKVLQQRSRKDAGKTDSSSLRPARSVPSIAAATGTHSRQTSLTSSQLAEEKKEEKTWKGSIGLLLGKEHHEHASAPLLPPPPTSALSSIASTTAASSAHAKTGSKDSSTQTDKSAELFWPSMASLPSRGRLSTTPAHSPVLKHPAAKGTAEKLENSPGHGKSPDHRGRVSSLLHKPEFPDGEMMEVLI

| Substance | other: log2(mutant vs WT) [1] | other: log2(mutant vs WT) [2] | other: log2(mutant vs WT) [3] | other: log2(mutant vs WT) [4] | response (log2(Intensity)) (AMOTL1) | response (log2(Intensity)) (CCDC85C) | response (log2(Intensity)) (TP53BP2) |
| --- | --- | --- | --- | --- | --- | --- | --- |
| Strep‐HA YAP1 (wild type) ΔWW1/2 | -7 | -9.2 | -7 | -9.2 | – | – | – |
| Strep‐HA YAP1 (wild type) ΔWW1 | -7.2 | -3.4 | -7.2 | -3.4 | – | – | – |
| Strep‐HA YAP1 (wild type) S367A | – | – | – | – | 34 | 28 | 30 |

Second part, the substance after the results:

| other: log2(mutant vs WT) [1] | other: log2(mutant vs WT) [2] | other: log2(mutant vs WT) [3] | other: log2(mutant vs WT) [4] | response (log2(Intensity)) (AMOTL1) | response (log2(Intensity)) (CCDC85C) | response (log2(Intensity)) (TP53BP2) | Substance |
| --- | --- | --- | --- | --- | --- | --- | --- |
| – | – | -0.6 | 0 | – | – | – | Strep‐HA YAP1 (wild type) 5SA |
| -3.6 | -7.7 | -3.6 | -7.7 | – | – | – | Strep‐HA YAP1 (wild type) ΔWW2 |
